Experimental findings from article PMC6750108, “Crystal Structure of 4-Hydroxyphenylpyruvate Dioxygenase in Complex with Substrate Reveals a New Starting Point for Herbicide Discovery” (Research, 2019) are described below.

This data set deals with the molecule itself. Briefly: crystal structure; AtHPPD-HPPA complex, hanging drop vapor diffusion, with CoCl2 and HPPA; reservoir 36% (w/v) PEG 400, 0.1 M NaCl, 0.1 M sodium acetate pH 5.0, 18°C; space group P 21, four molecules per asymmetric unit.

B1: Arabidopsis thaliana 4-hydroxyphenylpyruvate dioxygenase (enzyme, UniProt P93836 1-445, looked up)
chain: MGHQNAAVSENQNHDDGAASSPGFKLVGFSKFVRKNPKSDKFKVKRFHHIEFWCGDATNVARRFSWGLGMRFSAKSDLSTGNMVHASYLLTSGDLRFLFTAPYSPSLSAGEIKPTTTASIPSFDHGSCRSFFSSHGLGVRAVAIEVEDAESAFSISVANGAIPSSPPIVLNEAVTIAEVKLYGDVVLRYVSYKAEDTEKSEFLPGFERVEDASSFPLDYGIRRLDHAVGNVPELGPALTYVAGFTGFHQFAEFTADDVGTAESGLNSAVLASNDEMVLLPINEPVHGTKRKSQIQTYLEHNEGAGLQHLALMSEDIFRTLREMRKRSSIGGFDFMPSPPPTYYQNLKKRVGDVLSDDQIKECEELGILVDRDDQGTLLQIFTKPLGDRPTIFIEIIQRVGCMMKDEEGKAYQSGGCGGFGKGNFSELFKSIEEYEKTLEAKQLVG
notes: 4-hydroxyphenylpyruvate dioxygenase, Arabidopsis thaliana, UniProtKB P93836, full-length protein in pET15b; Crystallised with cobalt(II) chloride and the substrate HPPA; also called AtHPPD; HPPD; source: E. coli BL21 (DE3), purified (Ni-NTA, anion exchange, size exclusion chromatography)
For B1, the binding result was “binds”.
